Results published in the RNAGym collection of RNA variant scans (doi:10.1093/molbev/msab373).

B1: Azoarcus group I ribozyme (parent)
chain: GUGCCUUGCGCCGGGAAACCACGCAAGGGAUGGUGUCAAAUUCGGCGAAACCUAAGCGCCCGCCCGGGCGUAUGGCAACGCCGAGCCAAGCUUCGGCGCCUGCGCCGAUGAAGGUGUAGAGACUAGACGGCACCCACCUAAGGCAAACGCUAUGGUGAAGGCAUAGUCCAGGGAGUGGCGAAAGUCACACAAACCGG

Variants of: B1
Experiment: reverse-splicing fitness (ratio to wild type); higher = more active; in vitro selection; Mg2+ level not given
Method in brief: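 An in vitro group I ribozyme library with randomized positions was T7-transcribed and gel-purified. In triplicate, 10 pmol RNA in EPPS pH 7.5 was reacted with 50 pmoles of a 30-nt RNA substrate for 1 h at 37 °C across several added MgCl2 levels (1–48 mM), then stopped with EDTA. Products were reverse transcribed from a substrate-complementary primer, PCR-amplified and sequenced (HiSeq 4000). Fitness is a variant's read proportion after selection over that before, normalised to wild type.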

| Variant | reverse-splicing fitness |
| --- | --- |
| C82G A111C A120C A145G C150A C169A U176C | 0.0188 |
| C82G A111C A120C A145G C150A C169A U176G | 0.00862 |
| C82G A111C A120C A145G C150A C169A U176A | 0.0165 |
| C82A A145G C150A C169U U176A | 0.0138 |
| C82A A145G C150A C169U U176C | 0.0137 |
| C82A A145G C150A C169U U176G | 0.00699 |
| C82A A145C C150A C169G U176G | 0.00671 |
| C82A A145C C150A C169G U176C | 0.0122 |
| C82A A145C C150A C169G U176A | 0.0232 |
| C82A A145C C150A C169G | 0.00755 |
| C82A A145C C150A C169U | 0.00913 |
| C82A A145C C150A C169A | 0.00702 |
| C82A A145G C150U U176G | 0.0838 |
| C82A A145G C150U U176A | 0.287 |
| C82A A145G C150U U176C | 0.363 |
| C82A A145U C169A | 0.0085 |
| C82A A145U C169U | 0.0136 |
| C82A A145U C169G | 0.00976 |
| C82A C150G U176C | 0.0393 |
| C82A C150G U176A | 0.0245 |
| C82A C150G U176G | 0.0062 |
| C82A A145U C150U U176G | 0.0823 |
| C82A A145U C150U U176A | 0.273 |
| C82A A145U C150U U176C | 0.324 |

| Variant | reverse-splicing fitness |
| --- | --- |
| C82A C150A C169G | 0.00927 |
| C82A C150A C169U | 0.00897 |
| C82A C150A C169A | 0.0109 |
| C82G A111C A120C A145C C150A C169G | 0.00859 |
| C82G A111C A120C A145C C150A C169U | 0.0113 |
| C82G A111C A120C A145C C150A C169A | 0.00796 |
| C82A C150G C169A | 0.00934 |
| C82A C150G C169G | 0.00738 |
| C82A C150G C169U | 0.00995 |
| C82A A145U C150A | 0.0549 |
| C82A A145U C150U | 0.449 |
| C82A A145U C150G | 0.0675 |
| C82G A111C A120C A145C C150A C169A U176G | 0.00693 |
| C82G A111C A120C A145C C150A C169A U176A | 0.0156 |
| C82G A111C A120C A145C C150A C169A U176C | 0.00933 |
| C82A A145C C150G C169A | 0.00909 |
| C82A A145C C150G C169G | 0.00828 |
| C82A A145C C150G C169U | 0.00817 |
| C82A A145C C169U | 0.0141 |
| C82A A145C C169A | 0.00701 |
| C82A A145C C169G | 0.0105 |
| C82A A145G C169G U176G | 0.00481 |
| C82A A145G C169G U176A | 0.0218 |
| C82A A145G C169G U176C | 0.0324 |

| Variant | reverse-splicing fitness |
| --- | --- |
| C82A A145G C150U | 0.544 |
| C82A A145G C150A | 0.0995 |
| C82A A145G C150G | 0.0693 |
| C82G A111C A120C A145C C150G C169G U176G | 0.00608 |
| C82G A111C A120C A145C C150G C169G U176C | 0.00983 |
| C82G A111C A120C A145C C150G C169G U176A | 0.00984 |
| C82A A145G C150G C169G U176A | 0.0112 |
| C82A A145G C150G C169G U176C | 0.0134 |
| C82A A145G C150G C169G U176G | 0.00659 |
| C82G A111C A120C A145C C150U C169U | 0.011 |
| C82G A111C A120C A145C C150U C169G | 0.00697 |
| C82G A111C A120C A145C C150U C169A | 0.00728 |
| C82A A145C C150A U176G | 0.0123 |
| C82A A145C C150A U176C | 0.0306 |
| C82A A145C C150A U176A | 0.0316 |
| C82A C150U C169G | 0.0106 |
| C82A C150U C169A | 0.0105 |
| C82A C150U C169U | 0.0139 |
| C82G | 0.499 |
| C82A A145U C150G C169U U176A | 0.00877 |
| C82A A145U C150G C169U U176C | 0.0116 |
| C82A A145U C150G C169U U176G | 0.00595 |
| C82A C150A C169A U176C | 0.0177 |
| C82A C150A C169A U176A | 0.0211 |

| Variant | reverse-splicing fitness |
| --- | --- |
| C82A C150A C169A U176G | 0.007 |
| C82A A145G C150U C169G | 0.0117 |
| C82A A145G C150U C169A | 0.0115 |
| C82A A145G C150U C169U | 0.0162 |
| C82G A111C A120C | 0.0556 |
| C82A A145C U176G | 0.129 |
| C82A A145C U176C | 0.44 |
| C82A A145C U176A | 0.346 |
| C82A A145U C150G U176A | 0.0365 |
| C82A A145U C150G U176C | 0.0521 |
| C82A A145U C150G U176G | 0.0081 |
| C82A A145C C169U U176G | 0.00467 |
| C82A A145C C169U U176A | 0.0128 |
| C82A A145C C169U U176C | 0.0108 |
| C82A A145G C150G C169U U176G | 0.00762 |
| C82A A145G C150G C169U U176A | 0.0117 |
| C82A A145G C150G C169U U176C | 0.0136 |
| C82A A145G U176A | 0.387 |
| C82A A145G U176C | 0.488 |
| C82A A145G U176G | 0.113 |
| C82A A145U C169U U176C | 0.0127 |
| C82A A145U C169U U176A | 0.0117 |
| C82A A145U C169U U176G | 0.00434 |
| C82A A145U C150G C169A | 0.00902 |

| Variant | reverse-splicing fitness |
| --- | --- |
| C82A A145U C150G C169G | 0.00797 |
| C82A A145U C150G C169U | 0.00935 |
| C82A A145C C150U C169A U176A | 0.0106 |
| C82A A145C C150U C169A U176C | 0.00606 |
| C82A A145C C150U C169A U176G | 0.00598 |
| C82G A111C A120C A145C C169A | 0.00657 |
| C82G A111C A120C A145C C169U | 0.0151 |
| C82G A111C A120C A145C C169G | 0.00843 |
| C82A A145U C169A U176C | 0.00899 |
| C82A A145U C169A U176G | 0.00484 |
| C82A A145U C169A U176A | 0.00948 |
| C82A A145C C150U C169U U176G | 0.00481 |
| C82A A145C C150U C169U U176A | 0.0125 |
| C82A A145C C150U C169U U176C | 0.00806 |
| C82A C169A U176A | 0.015 |
| C82A C169A U176C | 0.0166 |
| C82A C169A U176G | 0.00441 |
| C82A A145U C150G C169A U176A | 0.0118 |
| C82A A145U C150G C169A U176C | 0.00974 |
| C82A A145U C150G C169A U176G | 0.00583 |
| C82G A111C A120C A145C C150U C169G U176G | 0.00745 |
| C82G A111C A120C A145C C150U C169G U176C | 0.0168 |
| C82G A111C A120C A145C C150U C169G U176A | 0.0246 |
| C82A A145G C150A U176C | 0.0855 |

| Variant | reverse-splicing fitness |
| --- | --- |
| C82A A145G C150A U176G | 0.0222 |
| C82A A145G C150A U176A | 0.0679 |
| C82A A145U C150U C169U U176A | 0.0118 |
| C82A A145U C150U C169U U176G | 0.00508 |
| C82A A145U C150U C169U U176C | 0.0131 |
| C82A C150A C169G U176C | 0.0241 |
| C82A C150A C169G U176A | 0.0198 |
| C82A C150A C169G U176G | 0.0072 |
| C82A A145U C150A C169G U176A | 0.0139 |
| C82A A145U C150A C169G U176C | 0.0131 |
| C82A A145U C150A C169G U176G | 0.0059 |
| C82G A111C A120C A145C C150U C169U U176A | 0.0131 |
| C82G A111C A120C A145C C150U C169U U176C | 0.0133 |
| C82G A111C A120C A145C C150U C169U U176G | 0.0064 |
| C82A A145U C150G C169G U176C | 0.00607 |
| C82A A145U C150G C169G U176G | 0.0053 |
| C82A A145U C150G C169G U176A | 0.00926 |
| C82G A111C A120C A145C C150A U176G | 0.00623 |
| C82G A111C A120C A145C C150A U176A | 0.00989 |
| C82G A111C A120C A145C C150A U176C | 0.0115 |
| C82A A145G C150A C169U | 0.0112 |
| C82A A145G C150A C169A | 0.0108 |
| C82A A145G C150A C169G | 0.00939 |
| C82G A111C | 0.281 |

| Variant | reverse-splicing fitness |
| --- | --- |
| C82A C150U C169G U176C | 0.0175 |
| C82A C150U C169G U176G | 0.00542 |
| C82A C150U C169G U176A | 0.014 |
| C82G A111C A120C A145C C150U C169A U176A | 0.0125 |
| C82G A111C A120C A145C C150U C169A U176C | 0.00824 |
| C82G A111C A120C A145C C150U C169A U176G | 0.00692 |
| C82A A145U C150A C169U U176C | 0.013 |
| C82A A145U C150A C169U U176A | 0.0139 |
| C82A A145U C150A C169U U176G | 0.00584 |
| C82A C169G U176G | 0.00442 |
| C82A C169G U176C | 0.0234 |
| C82A C169G U176A | 0.0139 |
| C82A A145G C150G C169U | 0.00998 |
| C82A A145G C150G C169A | 0.00856 |
| C82A A145G C150G C169G | 0.00856 |
| C82G A111C A120C A145C C150A C169G U176A | 0.0271 |
| C82G A111C A120C A145C C150A C169G U176C | 0.0215 |
| C82G A111C A120C A145C C150A C169G U176G | 0.00758 |
| C82A A145C C150G C169A U176G | 0.00669 |
| C82A A145C C150G C169A U176C | 0.00619 |
| C82A A145C C150G C169A U176A | 0.00836 |
| C82A A145G C150G C169A U176C | 0.0124 |
| C82A A145G C150G C169A U176G | 0.00857 |
